Source: publication PMC4769167 (eLife, 2016)

B1: D417C/A404L ClC-ec1 (cysteine-less background) (natural protein, E. coli)
chain: MKTDTPSLETPQAARLRRRQLIRQLLERDKTPLAILFMAAVVGTLVGLAAVAFDKGVAWLQNQRMGALVHTADNYPLLLTVAFLASAVLAMFGYFLVRKYAPEAGGSGIPEIEGALEDQRPVRWWRVLPVKFFGGLGTLGGGMVLGREGPTVQIGGNIGRMVLDIFRLKGDEARHTLLATGAAAGLAAAFNAPLAGILFIIEEMRPQFRYTLISIKAVFIGVIMSTIMYRIFNHEVALIDVGKLSDAPLNTLWLYLILGIIFGIFGPIFNKWVLGMQDLLHRVHGGNITKWVLMGGAIGGLAGLLGFVAPATSGGGFNLIPIATAGNFSMGMLVFIFVARVITTLLSFSSGAPGGIFAPMLALGTVLGTAFGMVAVELFPQYHLEAGTFAIAGMGALLAASIRLPLTGIILVLEMTCNYQLILPMIITGLGATLLAQFTGGKPLYSAILARTLAKQEAEQLARSK
notes: ClC-ec1; D417C with A404L in the cysteine-less background C85A/C302A/C347S; source: expressed and purified as in Accardi and Miller, 2004, final step Superdex 200 size exclusion
B2: D417C/F357A ClC-ec1 (cysteine-less background) (natural protein, E. coli)
chain: MKTDTPSLETPQAARLRRRQLIRQLLERDKTPLAILFMAAVVGTLVGLAAVAFDKGVAWLQNQRMGALVHTADNYPLLLTVAFLASAVLAMFGYFLVRKYAPEAGGSGIPEIEGALEDQRPVRWWRVLPVKFFGGLGTLGGGMVLGREGPTVQIGGNIGRMVLDIFRLKGDEARHTLLATGAAAGLAAAFNAPLAGILFIIEEMRPQFRYTLISIKAVFIGVIMSTIMYRIFNHEVALIDVGKLSDAPLNTLWLYLILGIIFGIFGPIFNKWVLGMQDLLHRVHGGNITKWVLMGGAIGGLAGLLGFVAPATSGGGFNLIPIATAGNFSMGMLVFIFVARVITTLLSFSSGAPGGIAAPMLALGTVLGTAFGMVAVELFPQYHLEAGTFAIAGMGALLAASIRAPLTGIILVLEMTCNYQLILPMIITGLGATLLAQFTGGKPLYSAILARTLAKQEAEQLARSK
notes: ClC-ec1; D417C with the Helix-N mutation F357A in the cysteine-less background C85A/C302A/C347S; also called F357A (Helix N); source: expressed and purified as in Accardi and Miller, 2004, final step Superdex 200 size exclusion
B3: D417C/L361A ClC-ec1 (cysteine-less background) (natural protein, E. coli)
chain: MKTDTPSLETPQAARLRRRQLIRQLLERDKTPLAILFMAAVVGTLVGLAAVAFDKGVAWLQNQRMGALVHTADNYPLLLTVAFLASAVLAMFGYFLVRKYAPEAGGSGIPEIEGALEDQRPVRWWRVLPVKFFGGLGTLGGGMVLGREGPTVQIGGNIGRMVLDIFRLKGDEARHTLLATGAAAGLAAAFNAPLAGILFIIEEMRPQFRYTLISIKAVFIGVIMSTIMYRIFNHEVALIDVGKLSDAPLNTLWLYLILGIIFGIFGPIFNKWVLGMQDLLHRVHGGNITKWVLMGGAIGGLAGLLGFVAPATSGGGFNLIPIATAGNFSMGMLVFIFVARVITTLLSFSSGAPGGIFAPMAALGTVLGTAFGMVAVELFPQYHLEAGTFAIAGMGALLAASIRAPLTGIILVLEMTCNYQLILPMIITGLGATLLAQFTGGKPLYSAILARTLAKQEAEQLARSK
notes: ClC-ec1; D417C with the Helix-N mutation L361A in the cysteine-less background C85A/C302A/C347S; also called L361A (Helix N); source: expressed and purified as in Accardi and Miller, 2004, final step Superdex 200 size exclusion
B4: D417C ClC-ec1 (cysteine-less C85A/C302A/C347S background, called the "WT background") (natural protein, E. coli)
chain: MKTDTPSLETPQAARLRRRQLIRQLLERDKTPLAILFMAAVVGTLVGLAAVAFDKGVAWLQNQRMGALVHTADNYPLLLTVAFLASAVLAMFGYFLVRKYAPEAGGSGIPEIEGALEDQRPVRWWRVLPVKFFGGLGTLGGGMVLGREGPTVQIGGNIGRMVLDIFRLKGDEARHTLLATGAAAGLAAAFNAPLAGILFIIEEMRPQFRYTLISIKAVFIGVIMSTIMYRIFNHEVALIDVGKLSDAPLNTLWLYLILGIIFGIFGPIFNKWVLGMQDLLHRVHGGNITKWVLMGGAIGGLAGLLGFVAPATSGGGFNLIPIATAGNFSMGMLVFIFVARVITTLLSFSSGAPGGIFAPMLALGTVLGTAFGMVAVELFPQYHLEAGTFAIAGMGALLAASIRAPLTGIILVLEMTCNYQLILPMIITGLGATLLAQFTGGKPLYSAILARTLAKQEAEQLARSK
notes: ClC-ec1, prokaryotic CLC Cl-/H+ exchange transporter, homodimer; D417C in the cysteine-less background C85A/C302A/C347S; E. coli is named only in the keywords; also called D417C/WT; source: expressed and purified as in Accardi and Miller, 2004, final step Superdex 200 size exclusion
B5: D417C/E148A ClC-ec1 (cysteine-less background) (natural protein, E. coli)
chain: MKTDTPSLETPQAARLRRRQLIRQLLERDKTPLAILFMAAVVGTLVGLAAVAFDKGVAWLQNQRMGALVHTADNYPLLLTVAFLASAVLAMFGYFLVRKYAPEAGGSGIPEIEGALEDQRPVRWWRVLPVKFFGGLGTLGGGMVLGRAGPTVQIGGNIGRMVLDIFRLKGDEARHTLLATGAAAGLAAAFNAPLAGILFIIEEMRPQFRYTLISIKAVFIGVIMSTIMYRIFNHEVALIDVGKLSDAPLNTLWLYLILGIIFGIFGPIFNKWVLGMQDLLHRVHGGNITKWVLMGGAIGGLAGLLGFVAPATSGGGFNLIPIATAGNFSMGMLVFIFVARVITTLLSFSSGAPGGIFAPMLALGTVLGTAFGMVAVELFPQYHLEAGTFAIAGMGALLAASIRAPLTGIILVLEMTCNYQLILPMIITGLGATLLAQFTGGKPLYSAILARTLAKQEAEQLARSK
notes: ClC-ec1; D417C with E148A in the cysteine-less background C85A/C302A/C347S; also called D417C in the E148A mutant background; source: expressed and purified as in Accardi and Miller, 2004, final step Superdex 200 size exclusion
B6: Y419C ClC-ec1 (WT ClC-ec1 background) (natural protein, E. coli)
chain: MKTDTPSLETPQAARLRRRQLIRQLLERDKTPLAILFMAAVVGTLVGLAAVAFDKGVAWLQNQRMGALVHTADNYPLLLTVAFLCSAVLAMFGYFLVRKYAPEAGGSGIPEIEGALEDQRPVRWWRVLPVKFFGGLGTLGGGMVLGREGPTVQIGGNIGRMVLDIFRLKGDEARHTLLATGAAAGLAAAFNAPLAGILFIIEEMRPQFRYTLISIKAVFIGVIMSTIMYRIFNHEVALIDVGKLSDAPLNTLWLYLILGIIFGIFGPIFNKWVLGMQDLLHRVHGGNITKWVLMGGAIGGLCGLLGFVAPATSGGGFNLIPIATAGNFSMGMLVFIFVARVITTLLCFSSGAPGGIFAPMLALGTVLGTAFGMVAVELFPQYHLEAGTFAIAGMGALLAASIRAPLTGIILVLEMTDNCQLILPMIITGLGATLLAQFTGGKPLYSAILARTLAKQEAEQLARSK
notes: ClC-ec1, prokaryotic CLC Cl-/H+ exchange transporter, homodimer; Y419C in the WT (native cysteines kept) background; source: expressed and purified as in Accardi and Miller, 2004, final step Superdex 200 size exclusion

Tests used:
[1] = target: the molecule itself; assay: cross-linking; inter-subunit disulfide between introduced cysteines, spontaneous (purified without reductant) or induced with copper-phenanthroline (CuP) for 1 h at room temperature, 0.2 mg/mL protein in Buffer A (150 mM NaCl, 10 mM HEPES pH 7.5, 5 mM DM); non-reducing SDS-PAGE, Coomassie, monomer and dimer bands quantified
[2] = target: the molecule itself; assay: SEC; Superdex 200 gel filtration, before and after treatment with CuP

Protein	binding result [1]	stoichiometry N [2]
B1	binds	–
B2	binds	–
B3	binds	–
B4	–	2
B5	binds	–
B6	binds	–
